Test results taken from the supplement of paper PMC9170038.

System: K4 kissing-loop RNA reporter
Assay: apparent KD of K4 kissing-loop reporter; higher = weaker reporter binding
Details: Eterna round: R107; input ligand: arginine 13.2 mM
Protocol: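 RNA-MaP round R107: designed RNA switches with theophylline, tryptophan, arginine or FMN aptamers are transcribed on-chip within common flanks. They are titrated with a labelled K4 kissing-loop RNA reporter in RNA-MaP buffer (100 mM Tris pH 7.5, 80 mM KCl, 4 mM MgCl2), without ligand or with the indicated ligand. Median apparent KD per design.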
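Further: bound reporter read as fluorescence of individual clusters on recovered sequencing chips by microscopy, with normalized cluster intensities fitted with a binding model.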

Sequence | apparent KD of K4 kissing-loop reporter
AAUAAAAUCACGGCCGCCACUGAAUAAUUGUUAAGUAGUGAUGUUACUUUACUUUUCUUAGUUAACAGGACCGGGUGAAUAUUUA [#18 K4 Tryptophan B Exclusion] | 101 nM
UUGUUUUACUGAAGGAGCGGCAAUUGAUACGUAGAUAUAGUGAUGUUAUAUAAGAUAGAGAGCCAGGUAGGUCGCAGAGGUGUUU [ExArgB.S] | 150 nM
UGUGAACAAAAGUAGAGUGGACCACUAUAGCGAGGACCGGUACGGCCGCCACUCGUAUAUGAAUUCAGUGAUGUUGAAAAGAGCU [whbob_EX_Tryp_A_t10] | 281 nM
CAUAUUUCGGCGGCCGCCACUGACCAUAGCCUUCGAUGGCCAGUGAUGUUGGCCUCUGGCUCUAACAGGACCGGGCCGAAUUGUG [Uslaxe] | 137 nM
AGACUACCACACUGUCAAUAGACAGUGAACUAGGAUAUGCUGAUAAGCAGAAGGAGUGAUGUUCCUAAUAAAAGGUAGUCAUAAU [FmnAX 16 #SwitchBubble #StaticStem #K4Early] | 431 nM
ACACUUUACGUAGGAUAUGCGACGAGUGAUGUUCGUCAGGCGGCUUUAGCUUAAGCAAGCCGCCUAGCAGAAGGACGGGCAGUGU [Bigemalaza] | 163 nM
GUCCCAGUGAUGUUGGUAGGCGAGCGGGAUACCAGCCAAGACUCAGGCCCUUGGCAGCCCACAUAUCCCACGUAGGGAGUAGCUC [Same State - Theophylline A (Freestyle 18)] | 172 nM
AAUGCAUAGUGAAGGAGCGCGAUAAGCAGUGAUGUUGCUUAGUUAUUAGUGUUUAUUUAUACGCAGGUAGGUCGCACUUUGCAUA [JR_ExcArginiB_Sub018] | 103 nM
UGAUAGCCAGUGAUGUUGGCAUGUACUGAAGGAGCGCGUGGAAACGCAGGUAGGUCGCAGUUCCUUGCCAAUUGAUCGAAAGAUC [#09 K4 Arginine A Exclusion] | 288 nM
CUCAAGUGAGGAUUUCGACAUCAAGAUGUGAAGGAUAUGUUACCAAACAGAAGGUCACGAUGUCAUCUAUGAGUGAUGUUCAGGA [theeternabot_sameState_KL_FMN_A_31] | 130 nM
AAGUGAUGUUGUAGUGAUGUUGUGAUGUUGCAGGAUAUAUAGUGAUGUAGAAGGGUAAGUACUGAUUUUGUUUGUGAGUGAUGUU [zqqzzrmullin] | 40.1 nM
GCUGAUCGUUUUCCACGAUGCGGCUAAUAAAAGGAUAUUGGUAUAUCAAGAAGGUUUGUUCUGUGUAGUGAUGUUGCACCGUGUU [theeternabot_sameState_KL_FMN_A_28] | 101 nM
ACAGAUGCUAGUGAUACCAGACUAGCACUACGUAAUAUGUCAAGUGAUGUUUGACAACUAGUCCCUUGGCAGCGCGAUACGUCUG [Theo B SS t2] | 353 nM
GGGUGGUAGGCGGCCGCCACUCUGAGCACCCACUGAGUGAUGUUCGUGGCGUAAGCCUGUUCUUAGAGGACCGGGUUUGUUGUUC [Exclusion Tryptophan B GF 17] | 88 nM
AUUUUAGAGUGAUGUUCUAAUUGAUCAGAUACCAGACAAUUAUAAGUCCCUUGGCAGCUGUAGCCGAUAAAUUUAUUUAAUUUAA [JR_SSTheophyA_Sub024] | 275 nM
UGACGCCUGUCGGCCGCCACUCACAGCAGCCAGUGAUGUUGGAUUGUAGCGGAGUGAUGUUUCGCGAGGACCGGGACUGCAGUUG [Same State Tryptophan B GF 13] | 249 nM
AGGAUCCGUCGACAAAAGUCGACAUAAUCCAAGGAUAUGACGAAAGUCAGAAGGUGGGCAUAAGUCCAGUGAUGUUGGAGGAUCC [FmnA 18 #SwitchBubble #K4Late] | 360 nM
UGUCAUUGGUCGGCCGCCACUAGGACCGGGUAUAACCCAGUGAUGUUGGUAAAUACGGCCGCCACUAGGACCGGGACCGAUGACU [TrypBS 14 #DoubleAptamer #SwitchBubble #K4Middle] | 233 nM
UCUGGAGCAUAUGAUACCAGCAGUGAGAGACAGGAAGUAUAGUGAUGUUAUAUGAGAGAAUGCCCUUGGCAGCGUGUGCAGUGGC [SSTheophylB.P] | 96.5 nM
UGAUAGGAGUGAAGGAGCGGGAGUGAUGUUCCCAAAAUGGAAGCCUGUAAAAUACAGGCCUCCCAGGUAGGUCGCACUCCUAUCU [KL-XARG-B17] | 112 nM
AGACUACCUACACUGUCAAUAGACAGUGACUAGGAUAUGCUGAUAAGCAGAAGGAGUGAUGUUCCAAAUAAAAGGUGGUAGUCAU [FmnAX 18 #SwitchBubble #StaticStem #K4Early] | 160 nM
CGAUCUUGGUCGGCCGCCACUACACCCACACCAAAUAGGAAAGUAGCGAGUGAUGUUUGUGACGUUAGGACCGGGACCACUGGUC [theeternabot_sameState_KL_Trp_B_25] | 321 nM
AAGUGUUCUAGUGAUACCAGACAAUUUUAUUUUUUCUUUUUUGCUAAGUGAUGUUUAGCAGUCCCUUGGCAGCACUAUUUCACUA [JR_SSTheophyB_Sub018] | 109 nM
GUCGAUGGUAACCGCUGACGUCGAUGAUGGGAGGAUAUGUUAGUUGACAGAAGGCCCAGUGAUGUUGGGCGUUUGUCUUGGUAUA [Ustecexe] | 143 nM
UAAGAAUAAGUAGCAGUGAUGUUGCUACUACGAGGACCGGUACGGCCGCCACUCGAGCCGUACCAACUGCUACAAGGUACGAAUA [(H1)-(H2)-(Trp1)-(Trp2)-(T)'-(H)'-(T)''] | 224 nM
AGUGUCAGUGAUGUUGAGAAGAUGGGUACUAAGGAUAUGCGGCGAUGCAGAAGGUAGAAUGAUUAGUUCGCAUGUUAUGAGGGAU [theeternabot_exclusion_KL_FMN_A_46] | 364 nM
AGUGAAGUUAGUGAUGUGUGAGUUUGGGAAGGAGCGCCGAGGAAGGCAGGUAGGUCGCCCAGUGAUGUUGGUGUAAAGAUGAGAG [whbob_Ex_Arginine_A_2t122] | 135 nM
